Test results published in the supplement of paper PMC7877785.
± gives the uncertainty stated by the source.

Experiment: self-splicing fitness, log relative to wild type (ln ratio); higher = more splicing; Tetrahymena group I intron in knt gene, E. coli kanamycin selection, DiMSum; sequences stand for … in CUCUCU…GGAGGGAAAAGUUAUCAGGCAUGCACCUGGUAGCUAGUCUUUAAACCAAUAGAUUGCAUCGGUUUAAAAGGCAAGACCGUCAAAUUGCGGGAAAGGGGUCAACAGCCGUUCAGUACCAAGUCUCAGGGGAAACUUUGAGAUGGCCUUGCAAAGGGUAUGGUAAUAAGCUGACGGACAUGGUCCUAACCACGCAGCCAAGUCCUAAGUCAACAGAUCUUCUGUUGAUAUGGAUGCAGUUCACAGACUAAAUGUCGGUCGGGGAAGAUGUAUUCUUCUCAUAAGAUAUAGUCGGACCUCUCCUUAAUGGGAGCUAGCGGAUGAAGUGAUGCAACACUGGAGCCGCUGGGAACUAAUUUGUAUGCGAAAGUAUAUUGAUUAGUUUUGGAGUACUCGUGGUCG
How it was run: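 DiMSum derived fitness as the error-weighted combination of fold changes across replicates, kanamycin versus no kanamycin, normalised to wild type. E. coli BL21(DE3) held the library, which randomised all eight P1ex-region intron nucleotides within the knt kanamycin-resistance gene on pET-22b(+). Six replicate transformations grew overnight at 37°C or 30°C on LB agar with or without 25 μg/mL kanamycin, also containing 100 μg/mL carbenicillin, 50 μM IPTG and 0.2% rhamnose, and pooled colonies were amplicon-sequenced on an Illumina HiSeq 2500.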

Sequence	self-splicing fitness (ln) (30 °C)	self-splicing fitness (ln) (37 °C)
CGACAGCAAUAUUACGAGCU	-2.86 ± 0.15	-2.17 ± 0.17
AUGAAGCAAUAUUACGACUU	-0.222 ± 0.099	-0.0268 ± 0.12
AUUAAGCAAUAUUACGUCUG	-1.74 ± 0.11	-0.762 ± 0.12
GAUUAGCAAUAUUACGGGGC	-3.62 ± 0.49	-2.97 ± 0.3
GUGAAGCAAUAUUACGGAUG	-0.987 ± 0.07	-0.586 ± 0.098
UGCUAGCAAUAUUACGCACU	-2.3 ± 0.11	-1.11 ± 0.11
GAACAGCAAUAUUACGCUGC		-1.69 ± 0.26
ACCCAGCAAUAUUACGGAUG	-1.57 ± 0.067	-0.939 ± 0.083
GAUUAGCAAUAUUACGGUCC	-3.27 ± 0.39	
CCUGAGCAAUAUUACGCGCA	-2.95 ± 0.34	-1.11 ± 0.37
GGGGAGCAAUAUUACGCACA	-2.37 ± 0.43	-0.994 ± 0.34
UAACAGCAAUAUUACGAGAG	-3.21 ± 0.18	-2.46 ± 0.13
GGAAAGCAAUAUUACGAUCC	-3.2 ± 0.39	
UGGGAGCAAUAUUACGAAUU		-2.63 ± 0.28
GAGAAGCAAUAUUACGACCU	0.392 ± 0.1	-0.128 ± 0.096
ACGAAGCAAUAUUACGUUAA	-3.25 ± 0.22	-2.09 ± 0.14
CACUAGCAAUAUUACGCGAG	-2.13 ± 0.26	-1.79 ± 0.17
AAGAAGCAAUAUUACGCUAG	-2.36 ± 0.14	-0.458 ± 0.13
GAGUAGCAAUAUUACGAUAU	-2.42 ± 0.1	-1.51 ± 0.14
UCGUAGCAAUAUUACGUUGC	-3.02 ± 0.47	
CGAUAGCAAUAUUACGGGCC	-1.62 ± 0.49	-1.8 ± 0.4
ACGUAGCAAUAUUACGUUUC	-4.47 ± 0.25	-2.87 ± 0.19
UGCGAGCAAUAUUACGCCGC	-3.34 ± 0.36	-1.3 ± 0.43
CUGGAGCAAUAUUACGAAUU		-1.27 ± 0.29
CCUUAGCAAUAUUACGUUAG	-4.07 ± 0.21	-2.67 ± 0.26
AUUAAGCAAUAUUACGCUUU	-2.38 ± 0.24	-1.24 ± 0.32

Sequence	self-splicing fitness (ln) (30 °C)	self-splicing fitness (ln) (37 °C)
GUGUAGCAAUAUUACGUGUC	-2.67 ± 0.21	-0.104 ± 0.12
GGUGAGCAAUAUUACGUAAG	-3.05 ± 0.45	-2.22 ± 0.28
UUAUAGCAAUAUUACGUGAC	-3.22 ± 0.22	-0.826 ± 0.22
GCCAAGCAAUAUUACGAAUC	-1.25 ± 0.078	-1.5 ± 0.095
AUCAAGCAAUAUUACGGCCU	-0.508 ± 0.05	0.15 ± 0.066
AUGCAGCAAUAUUACGAACU	-0.238 ± 0.1	0.379 ± 0.11
GCCUAGCAAUAUUACGGGCC	-4.2 ± 0.26	-3.41 ± 0.39
CGACAGCAAUAUUACGGGUC	-4.52 ± 0.32	-3.14 ± 0.29
GUGCAGCAAUAUUACGAACU	-1.16 ± 0.11	0.161 ± 0.12
UAUUAGCAAUAUUACGAAUC	-3.46 ± 0.23	-0.913 ± 0.2
ACUGAGCAAUAUUACGUUGG	-4.04 ± 0.2	-2.17 ± 0.18
AGGAAGCAAUAUUACGAUAU	-3.48 ± 0.19	-2.5 ± 0.12
GCAUAGCAAUAUUACGAUAA	-2.1 ± 0.15	-1.27 ± 0.13
ACGGAGCAAUAUUACGUCUA	-3.96 ± 0.46	-1.3 ± 0.16
UGACAGCAAUAUUACGACCG	0.701 ± 0.16	0.698 ± 0.19
GGUGAGCAAUAUUACGUUCG	-2.65 ± 0.37	-2.44 ± 0.32
UAACAGCAAUAUUACGUCAC	-2.97 ± 0.15	-1.82 ± 0.16
GACAAGCAAUAUUACGGCCA	-0.973 ± 0.11	-0.192 ± 0.15
CACGAGCAAUAUUACGUCCG	-1.34 ± 0.092	-0.226 ± 0.096
UCACAGCAAUAUUACGGUCC	-2.85 ± 0.21	-2.2 ± 0.2
GUGUAGCAAUAUUACGUAAU	-1.75 ± 0.12	-0.371 ± 0.12
AAACAGCAAUAUUACGCGUC	-2.3 ± 0.095	-1.78 ± 0.12
UUCAAGCAAUAUUACGCGAA	-3.01 ± 0.18	-1.47 ± 0.13
AGUCAGCAAUAUUACGAAGU	-1.48 ± 0.084	-0.0211 ± 0.096
UCACAGCAAUAUUACGGUAC	-3.57 ± 0.24	-2.6 ± 0.22
CACAAGCAAUAUUACGCUGG	-4.18 ± 0.23	-1.74 ± 0.14

Sequence	self-splicing fitness (ln) (30 °C)	self-splicing fitness (ln) (37 °C)
UGUAAGCAAUAUUACGUCCA	0.388 ± 0.1	-0.132 ± 0.12
GCCAAGCAAUAUUACGCCGC	-2.92 ± 0.31	-1.02 ± 0.28
ACAGAGCAAUAUUACGUGUA	-3.11 ± 0.15	-2.62 ± 0.14
GCGUAGCAAUAUUACGGGCU	-3.57 ± 0.32	-1.62 ± 0.2
AAUUAGCAAUAUUACGUCUC	-0.875 ± 0.12	-0.478 ± 0.16
GGCAAGCAAUAUUACGUACG	-0.191 ± 0.058	0.428 ± 0.075
AUACAGCAAUAUUACGCUAA	-1.96 ± 0.12	-1.01 ± 0.12
CACCAGCAAUAUUACGUGUA	-2.09 ± 0.065	-0.896 ± 0.069
GGGUAGCAAUAUUACGUUAA	-1.72 ± 0.16	-0.668 ± 0.13
CAGAAGCAAUAUUACGCUGG	-2.84 ± 0.15	-2.21 ± 0.15
CUGCAGCAAUAUUACGUGAC	-0.842 ± 0.063	0.23 ± 0.084
CCUGAGCAAUAUUACGUUGU	-3.57 ± 0.2	-2.73 ± 0.23
AGGCAGCAAUAUUACGCUCA	-0.172 ± 0.079	0.0289 ± 0.12
UCGAAGCAAUAUUACGGGGA	-1.17 ± 0.13	-0.644 ± 0.13
AGGUAGCAAUAUUACGAGCA	-1.33 ± 0.019	-0.51 ± 0.034
GUUAAGCAAUAUUACGCGAU	-3.1 ± 0.21	-2.65 ± 0.29
GUCCAGCAAUAUUACGAACU	-1.37 ± 0.074	-0.292 ± 0.081
CUCCAGCAAUAUUACGGUGU	-4.11 ± 0.15	-2.28 ± 0.13
GCGUAGCAAUAUUACGAUGA	-0.962 ± 0.13	0.16 ± 0.14
GCCAAGCAAUAUUACGUCGU	-0.691 ± 0.058	-0.359 ± 0.066
AGGGAGCAAUAUUACGUUUA	-2.68 ± 0.33	-2.33 ± 0.31
CACGAGCAAUAUUACGUAAC	-2.41 ± 0.27	
AGCCAGCAAUAUUACGCCCG	-1.94 ± 0.47	-1.61 ± 0.36
UCCAAGCAAUAUUACGCUCU	-3.44 ± 0.28	-1.75 ± 0.18
UUAGAGCAAUAUUACGGCAC	-3.59 ± 0.38	-1.95 ± 0.38
